In patent publication US20260001928A1 (CORTERIA PHARMACEUTICALS, priority 2022, published 2026):
*1 amine or outer side, *2 acyl side, *3 side chain or, on linkers, in order; H or OH if unused. Where no end group is shown, it is not given here. Side-chain parts run from the residue outwards. [ ]: non-standard residue; d: D form. The star is where a group is joined. C18 diacid = O=C(O)CCCCCCCCCCCCCCCCC(=O)*; C16 diacid = O=C(O)CCCCCCCCCCCCCCC(=O)*; γGlu = O=C(O)[C@H](CCC(=O)[*:2])N[*:1]; NMeI = CC[C@H](C)[C@H](NC)C(=O)O; AEEA = NCCOCCOCC(=O)O

T1: CRF1R receptor (UniProt P34998 24-415, limits assumed)
T1 sequence (looked up): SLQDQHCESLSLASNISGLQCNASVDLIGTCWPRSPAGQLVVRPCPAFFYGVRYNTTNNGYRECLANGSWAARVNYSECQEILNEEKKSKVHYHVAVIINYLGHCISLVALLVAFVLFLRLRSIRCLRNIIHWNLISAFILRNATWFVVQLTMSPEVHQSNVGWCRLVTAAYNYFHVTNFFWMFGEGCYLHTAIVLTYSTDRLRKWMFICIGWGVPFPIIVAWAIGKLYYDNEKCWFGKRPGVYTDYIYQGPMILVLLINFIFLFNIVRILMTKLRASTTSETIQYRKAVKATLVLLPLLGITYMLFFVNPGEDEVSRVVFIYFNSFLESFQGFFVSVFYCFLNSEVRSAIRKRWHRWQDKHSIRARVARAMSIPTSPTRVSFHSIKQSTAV

B1: SEQ ID NO 34 (peptide)
peptide: H-VLSLD[dV]PIKLK([γGlu-C16 diacid])KILLEQEKQKKQREQAETNKQILAQV-NH2
SMILES: CC[C@H](C)[C@H](NC(=O)[C@H](CCC(N)=O)NC(=O)[C@H](CCCCN)NC(=O)[C@H](CC(N)=O)NC(=O)[C@@H](NC(=O)[C@H](CCC(=O)O)NC(=O)[C@H](C)NC(=O)[C@H](CCC(N)=O)NC(=O)[C@H](CCC(=O)O)NC(=O)[C@H](CCCNC(=N)N)NC(=O)[C@H](CCC(N)=O)NC(=O)[C@H](CCCCN)NC(=O)[C@H](CCCCN)NC(=O)[C@H](CCC(N)=O)NC(=O)[C@H](CCCCN)NC(=O)[C@H](CCC(=O)O)NC(=O)[C@H](CCC(N)=O)NC(=O)[C@H](CCC(=O)O)NC(=O)[C@H](CC(C)C)NC(=O)[C@H](CC(C)C)NC(=O)[C@@H](NC(=O)[C@H](CCCCN)NC(=O)[C@H](CCCCNC(=O)CC[C@H](NC(=O)CCCCCCCCCCCCCCC(=O)O)C(=O)O)NC(=O)[C@H](CC(C)C)NC(=O)[C@H](CCCCN)NC(=O)[C@@H](NC(=O)[C@@H]1CCCN1C(=O)[C@H](NC(=O)[C@H](CC(=O)O)NC(=O)[C@H](CC(C)C)NC(=O)[C@H](CO)NC(=O)[C@H](CC(C)C)NC(=O)[C@@H](N)C(C)C)C(C)C)[C@@H](C)CC)[C@@H](C)CC)[C@@H](C)O)C(=O)N[C@@H](CC(C)C)C(=O)N[C@@H](C)C(=O)N[C@@H](CCC(N)=O)C(=O)N[C@H](C(N)=O)C(C)C
B2: SEQ ID NO 147 (peptide)
peptide: H-IVLSLD[dV]PIKLK([γGlu-γGlu-C16 diacid])QILLKQERQKKQREQAEKNKQILEQV-NH2
SMILES: CC[C@H](C)[C@H](N)C(=O)N[C@H](C(=O)N[C@@H](CC(C)C)C(=O)N[C@@H](CO)C(=O)N[C@@H](CC(C)C)C(=O)N[C@@H](CC(=O)O)C(=O)N[C@@H](C(=O)N1CCC[C@H]1C(=O)N[C@H](C(=O)N[C@@H](CCCCN)C(=O)N[C@@H](CC(C)C)C(=O)N[C@@H](CCCCNC(=O)CC[C@H](NC(=O)CC[C@H](NC(=O)CCCCCCCCCCCCCCC(=O)O)C(=O)O)C(=O)O)C(=O)N[C@@H](CCC(N)=O)C(=O)N[C@H](C(=O)N[C@@H](CC(C)C)C(=O)N[C@@H](CC(C)C)C(=O)N[C@@H](CCCCN)C(=O)N[C@@H](CCC(N)=O)C(=O)N[C@@H](CCC(=O)O)C(=O)N[C@@H](CCCNC(=N)N)C(=O)N[C@@H](CCC(N)=O)C(=O)N[C@@H](CCCCN)C(=O)N[C@@H](CCCCN)C(=O)N[C@@H](CCC(N)=O)C(=O)N[C@@H](CCCNC(=N)N)C(=O)N[C@@H](CCC(=O)O)C(=O)N[C@@H](CCC(N)=O)C(=O)N[C@@H](C)C(=O)N[C@@H](CCC(=O)O)C(=O)N[C@@H](CCCCN)C(=O)N[C@@H](CC(N)=O)C(=O)N[C@@H](CCCCN)C(=O)N[C@@H](CCC(N)=O)C(=O)N[C@H](C(=O)N[C@@H](CC(C)C)C(=O)N[C@@H](CCC(=O)O)C(=O)N[C@@H](CCC(N)=O)C(=O)N[C@H](C(N)=O)C(C)C)[C@@H](C)CC)[C@@H](C)CC)[C@@H](C)CC)C(C)C)C(C)C
B3: SEQ ID NO 149 (peptide)
peptide: IVLSLDVPIKLK([AEEA-AEEA-γGlu-C18 diacid])KILLEQEKQKKQREQAETNKQILAQV-NH2
modifications: not fully specified (residue 7); printed as IVLSLDVPIKLK*KILLEQEKQKKQREQAETNKQILAQV-NH2
B4: SEQ ID NO 116 (peptide)
peptide: [NMeI]VLSLD[dV]PIKLK([AEEA-AEEA-γGlu-C18 diacid])KILLEQEKQKKQREQAETNEQILAQV-NH2
modifications: N-terminus assumed
SMILES: CC[C@H](C)[C@H](NC)C(=O)N[C@H](C(=O)N[C@@H](CC(C)C)C(=O)N[C@@H](CO)C(=O)N[C@@H](CC(C)C)C(=O)N[C@@H](CC(=O)O)C(=O)N[C@@H](C(=O)N1CCC[C@H]1C(=O)N[C@H](C(=O)N[C@@H](CCCCN)C(=O)N[C@@H](CC(C)C)C(=O)N[C@@H](CCCCNC(=O)COCCOCCNC(=O)COCCOCCNC(=O)CC[C@H](NC(=O)CCCCCCCCCCCCCCCCC(=O)O)C(=O)O)C(=O)N[C@@H](CCCCN)C(=O)N[C@H](C(=O)N[C@@H](CC(C)C)C(=O)N[C@@H](CC(C)C)C(=O)N[C@@H](CCC(=O)O)C(=O)N[C@@H](CCC(N)=O)C(=O)N[C@@H](CCC(=O)O)C(=O)N[C@@H](CCCCN)C(=O)N[C@@H](CCC(N)=O)C(=O)N[C@@H](CCCCN)C(=O)N[C@@H](CCCCN)C(=O)N[C@@H](CCC(N)=O)C(=O)N[C@@H](CCCNC(=N)N)C(=O)N[C@@H](CCC(=O)O)C(=O)N[C@@H](CCC(N)=O)C(=O)N[C@@H](C)C(=O)N[C@@H](CCC(=O)O)C(=O)N[C@H](C(=O)N[C@@H](CC(N)=O)C(=O)N[C@@H](CCC(=O)O)C(=O)N[C@@H](CCC(N)=O)C(=O)N[C@H](C(=O)N[C@@H](CC(C)C)C(=O)N[C@@H](C)C(=O)N[C@@H](CCC(N)=O)C(=O)N[C@H](C(N)=O)C(C)C)[C@@H](C)CC)[C@@H](C)O)[C@@H](C)CC)[C@@H](C)CC)C(C)C)C(C)C
B5: SEQ ID NO 151 (peptide)
peptide: H-IVLSLD[dV]PIKLK([γGlu-C16 diacid])QILLKQERQKKQREQAEKNKQILEQV-NH2
SMILES: CC[C@H](C)[C@H](N)C(=O)N[C@H](C(=O)N[C@@H](CC(C)C)C(=O)N[C@@H](CO)C(=O)N[C@@H](CC(C)C)C(=O)N[C@@H](CC(=O)O)C(=O)N[C@@H](C(=O)N1CCC[C@H]1C(=O)N[C@H](C(=O)N[C@@H](CCCCN)C(=O)N[C@@H](CC(C)C)C(=O)N[C@@H](CCCCNC(=O)CC[C@H](NC(=O)CCCCCCCCCCCCCCC(=O)O)C(=O)O)C(=O)N[C@@H](CCC(N)=O)C(=O)N[C@H](C(=O)N[C@@H](CC(C)C)C(=O)N[C@@H](CC(C)C)C(=O)N[C@@H](CCCCN)C(=O)N[C@@H](CCC(N)=O)C(=O)N[C@@H](CCC(=O)O)C(=O)N[C@@H](CCCNC(=N)N)C(=O)N[C@@H](CCC(N)=O)C(=O)N[C@@H](CCCCN)C(=O)N[C@@H](CCCCN)C(=O)N[C@@H](CCC(N)=O)C(=O)N[C@@H](CCCNC(=N)N)C(=O)N[C@@H](CCC(=O)O)C(=O)N[C@@H](CCC(N)=O)C(=O)N[C@@H](C)C(=O)N[C@@H](CCC(=O)O)C(=O)N[C@@H](CCCCN)C(=O)N[C@@H](CC(N)=O)C(=O)N[C@@H](CCCCN)C(=O)N[C@@H](CCC(N)=O)C(=O)N[C@H](C(=O)N[C@@H](CC(C)C)C(=O)N[C@@H](CCC(=O)O)C(=O)N[C@@H](CCC(N)=O)C(=O)N[C@H](C(N)=O)C(C)C)[C@@H](C)CC)[C@@H](C)CC)[C@@H](C)CC)C(C)C)C(C)C

Experiments:
[1] = molecular target: human corticotropin-releasing factor 2a (CRF2a receptor) (human), Q13324; experiment: cell-based or functional assay
[2] = molecular target: T1, CRF1R receptor; experiment: cell-based or functional assay

Chain of human corticotropin-releasing factor 2a (CRF2a receptor) (human), Q13324 (Q13324 20-411): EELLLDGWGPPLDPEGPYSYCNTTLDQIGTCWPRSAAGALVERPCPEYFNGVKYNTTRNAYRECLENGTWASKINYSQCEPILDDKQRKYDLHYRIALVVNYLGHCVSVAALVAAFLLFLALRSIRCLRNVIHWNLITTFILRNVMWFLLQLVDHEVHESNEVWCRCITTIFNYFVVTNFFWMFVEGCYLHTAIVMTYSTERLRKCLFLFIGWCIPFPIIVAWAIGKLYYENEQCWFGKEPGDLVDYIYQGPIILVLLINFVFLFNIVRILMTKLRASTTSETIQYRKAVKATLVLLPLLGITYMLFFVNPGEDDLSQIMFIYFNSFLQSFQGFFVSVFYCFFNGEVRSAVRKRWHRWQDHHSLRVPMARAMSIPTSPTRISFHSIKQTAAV

| Binder | EC50 [nM] (cAMP) [1] | EC50 [2] [nM] | Emax (% I) [2] [%] |
| --- | --- | --- | --- |
| B1 | 1.61 | – | – |
| B2 | 0.18 | – | – |
| B3 | 0.44 | > 250 | 4 |
| B4 | 0.37 | – | 0 |
| B5 | 0.12 | – | – |
